Results as given in patent US20240059799A1 (Pfizer, published 2024).

What was measured:
Assay in all cases: SPR, Biacore 8K+, 37 C; antibody captured by anti-human Fc, cytokine injected
cynomolgus monkey IL-23 = biological target: T1, cynomolgus monkey IL-23 (cynomolgus monkey, limits assumed)
T1 construct: also called cyno IL-23
T1 chain 1: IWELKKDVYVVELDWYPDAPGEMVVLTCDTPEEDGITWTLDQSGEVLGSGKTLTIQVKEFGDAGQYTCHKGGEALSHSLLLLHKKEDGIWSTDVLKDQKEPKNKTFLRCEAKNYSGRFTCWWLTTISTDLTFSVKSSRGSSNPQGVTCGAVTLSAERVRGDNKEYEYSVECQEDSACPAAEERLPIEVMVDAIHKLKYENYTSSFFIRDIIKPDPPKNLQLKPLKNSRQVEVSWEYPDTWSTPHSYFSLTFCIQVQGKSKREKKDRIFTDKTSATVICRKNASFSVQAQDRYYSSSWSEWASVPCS
T1 chain 2: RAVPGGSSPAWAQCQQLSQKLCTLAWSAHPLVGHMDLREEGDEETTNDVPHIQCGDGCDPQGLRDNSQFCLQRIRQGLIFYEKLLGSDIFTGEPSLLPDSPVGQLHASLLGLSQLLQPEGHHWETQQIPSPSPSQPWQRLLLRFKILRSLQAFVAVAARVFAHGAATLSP
Procedure: (§1) In order to determine binding to TL1A, kinetic assays were conducted at 37° C. using a collection rate of 10 Hz on a Biacore™ T200 instrument (GE Healthcare). […] For the analysis of the p40 binding arm, kinetic assays were conducted at 37° C. using a collection rate of 10 Hz on a Biacore™ 8 K+ instrument (GE Healthcare).

rabbit IL-23 = biological target: T2, rabbit IL-23 (rabbit)
T2 chain 1: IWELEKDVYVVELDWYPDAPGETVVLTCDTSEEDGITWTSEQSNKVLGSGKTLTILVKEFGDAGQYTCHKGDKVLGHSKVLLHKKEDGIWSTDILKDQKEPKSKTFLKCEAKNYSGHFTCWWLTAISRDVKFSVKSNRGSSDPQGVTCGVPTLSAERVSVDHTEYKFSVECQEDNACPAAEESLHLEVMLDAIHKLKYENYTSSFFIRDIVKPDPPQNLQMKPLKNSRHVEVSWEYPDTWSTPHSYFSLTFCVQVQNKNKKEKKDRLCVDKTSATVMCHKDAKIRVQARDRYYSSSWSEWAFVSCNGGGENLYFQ
T2 chain 2: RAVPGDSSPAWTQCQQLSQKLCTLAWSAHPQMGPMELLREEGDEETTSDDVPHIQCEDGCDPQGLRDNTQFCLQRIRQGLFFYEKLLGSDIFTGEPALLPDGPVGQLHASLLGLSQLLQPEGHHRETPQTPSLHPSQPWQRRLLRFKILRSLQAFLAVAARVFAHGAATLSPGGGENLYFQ
Procedure: as §1

mouse IL-23 = biological target: T3, mouse IL-23 (mouse, UniProt P43432 23-335; Q9EQ14 22-196)
T3 sequence 1: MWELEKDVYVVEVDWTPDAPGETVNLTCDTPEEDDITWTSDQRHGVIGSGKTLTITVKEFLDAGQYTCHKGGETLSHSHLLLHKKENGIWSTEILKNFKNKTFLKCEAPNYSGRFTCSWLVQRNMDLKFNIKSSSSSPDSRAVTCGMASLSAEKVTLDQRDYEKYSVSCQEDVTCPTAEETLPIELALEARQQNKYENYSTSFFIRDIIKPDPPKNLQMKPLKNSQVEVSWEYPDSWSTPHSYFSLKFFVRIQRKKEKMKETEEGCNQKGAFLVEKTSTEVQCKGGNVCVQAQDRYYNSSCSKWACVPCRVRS
T3 sequence 2: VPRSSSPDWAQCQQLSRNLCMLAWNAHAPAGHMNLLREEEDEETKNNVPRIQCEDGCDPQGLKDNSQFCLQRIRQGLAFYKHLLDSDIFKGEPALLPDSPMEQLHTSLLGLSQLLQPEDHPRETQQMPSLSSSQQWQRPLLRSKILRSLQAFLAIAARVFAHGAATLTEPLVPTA
Procedure: as §1

cynomolgus monkey IL-12 = biological target: T4, cynomolgus monkey IL-12 (cynomolgus monkey)
T4 construct: also called cyno IL-12
T4 chain 1: T1 chain 1
T4 chain 2: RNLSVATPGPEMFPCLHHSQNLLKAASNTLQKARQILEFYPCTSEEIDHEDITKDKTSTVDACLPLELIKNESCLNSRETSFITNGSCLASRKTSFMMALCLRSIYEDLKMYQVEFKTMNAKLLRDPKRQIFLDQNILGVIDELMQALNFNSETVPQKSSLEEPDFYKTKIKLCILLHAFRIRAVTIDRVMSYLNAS
Procedure: as §1

human IL-12 = biological target: T5, human IL-12 (human, UniProt P29460 23-328; P29459 23-219)
T5 construct: also called recombinant human IL-12 (p40/p35)
T5 sequence 1: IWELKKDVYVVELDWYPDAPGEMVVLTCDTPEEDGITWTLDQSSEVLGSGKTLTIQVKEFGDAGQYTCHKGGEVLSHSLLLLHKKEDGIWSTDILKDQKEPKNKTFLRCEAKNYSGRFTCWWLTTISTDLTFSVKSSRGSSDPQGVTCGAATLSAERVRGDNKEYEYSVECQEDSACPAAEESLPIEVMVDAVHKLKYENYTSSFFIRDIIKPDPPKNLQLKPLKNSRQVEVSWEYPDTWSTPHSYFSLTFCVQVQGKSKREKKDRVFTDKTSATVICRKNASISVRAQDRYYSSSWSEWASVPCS
T5 sequence 2: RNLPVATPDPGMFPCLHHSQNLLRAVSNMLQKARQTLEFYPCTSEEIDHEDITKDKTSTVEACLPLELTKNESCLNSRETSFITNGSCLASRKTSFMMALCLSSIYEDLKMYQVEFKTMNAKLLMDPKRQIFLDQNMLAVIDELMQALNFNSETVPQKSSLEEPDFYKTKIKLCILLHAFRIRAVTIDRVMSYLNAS
Procedure: as §1

Kd (cynomolgus monkey IL-23): 0.281 nM
koff (cynomolgus monkey IL-23): 0.000542 s⁻¹
kon (cynomolgus monkey IL-23): 1.93e+06 M⁻¹ s⁻¹
binding result (rabbit IL-23): no binding (tested: 200 nM)
binding result (mouse IL-23): no binding (tested: 200 nM)
Kd (cynomolgus monkey IL-12): 0.267 nM
koff (cynomolgus monkey IL-12): 0.000636 s⁻¹
kon (cynomolgus monkey IL-12): 2.38e+06 M⁻¹ s⁻¹
Kd (human IL-12): 0.123 nM
koff (human IL-12): 0.000258 s⁻¹
kon (human IL-12): 2.1e+06 M⁻¹ s⁻¹
B1: p40TL1A-0033 bispecific antibody (bispecific antibody, human IgG1, kappa)
heavy: EVQLVQSGAEVKKPGESLKISCKGSGYSFTTYWLGWVRQMPGKGLDWIGIMSPVDSDIRYSPSFQGQVTMSVDKSITTAYLQWNSLKASDTAMYYCARRRPGQGYFDFWGQGTLVTVSSASTKGPSVFPLAPSSKSTSGGTAALGCLVKDYFPEPVTVSWNSGALTSGVHTFPAVLQSSGLYSLSSVVTVPSSSLGTQTYICNVNHKPSNTKVDKKVEPKSCDKTHTCPPCPAPEAAGAPSVFLFPPKPKDTLMISRTPEVTCVVVDVSHEDPEVKFNWYVDGVEVHNAKTKPREEQYNSTYRVVSVLTVLHQDWLNGKEYKCKVSNKALPAPIEKTISKAKGQPREPQVCTLPPSREEMTKNQVSLWCLVKGFYPSDIAVEWESNGQPENNYKTTPPVLDSDGSFFLYSKLTVDKSRWQQGNVFSCSVLHEALHSHYTQKSLSLSPGK
light: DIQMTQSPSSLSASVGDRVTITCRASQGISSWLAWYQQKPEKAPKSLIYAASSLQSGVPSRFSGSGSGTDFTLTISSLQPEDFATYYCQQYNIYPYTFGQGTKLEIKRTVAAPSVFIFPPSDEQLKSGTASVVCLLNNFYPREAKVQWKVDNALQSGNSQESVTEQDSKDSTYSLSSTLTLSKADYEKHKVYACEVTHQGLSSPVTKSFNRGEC
chain 1: not shown
chain 2: QVQLVQSGAEVKKPGASVKVSCKASGYDYTYYGISWVRQAPGQGLEWMGWISTYNTGTHYAPSLQGRVTMTTDTSTSTAYMELRSLRSDDTAVYYCARESYYGSGAFRGGMDVWGQGTTVTVSSASTKGPSVFPLAPSSKSTSGGTAALGCLVKDYFPEPVTVSWNSGALTSGVHTFPAVLQSSGLYSLSSVVTVPSSSLGTQTYICNVNHKPSNTKVDKKVEPKSC
notes: Single cell KiH, modified Fd format; IgG1 effector-function-minimized Fc with LS mutations
